Target: T1, human IL12RB1 Fc fusion protein (human, UniProt P42701 24-545)
T1 construct: Purchased from R & D systems; Coated on the ELISA plate; also called human IL-12RB1 receptor subunit; human IL12 receptor; not shown: Fc part of the purchased fusion protein (R & D systems)
Assay: ELISA, receptor-Fc coated on plate, titration of cytokine, detection with anti-human p40 monoclonal antibodies
Procedure: To test whether cynomolgus IL-23 binds to the human IL23 receptor (“IL23R”), and whether cynomolgus IL-12 binds to the human IL12 receptor (“IL12RB1”), human IL23R Fc and human IL12RB1 Fc fusion proteins were purchased (R & D systems) for an ELISA assay. To capture IL23R Fc fusion protein, 500 ng of IL23R—Fc protein in 100 μl of PBS (pH 7.4) was put onto a 96-well Maxisorb plate (NUNC, Rochester, N.Y.) and incubated overnight at 4° C. Likewise, to capture IL12RB1 Fc fusion protein, 500 ng of IL12RB1 Fe protein in 100 μl of PBS (pH 7.4) was put onto a 96-well Maxisorb plate (NUNC, Rochester, N.Y.) and incubated overnight at 4° C. For each, the capture solution was thrown away after overnight incubation and the plate was washed with 200 μl per well of TBST (25 mM Tris-HCl pH 7.5, 150 mM NaCl and 0.01% Tween 20) three times. The plate was then blocked with 200 μl per well of TBST containing 5% nonfat dry milk for 30 minutes at room temperature. After blocking, the plate was washed 3 times with 200 μl per well of TBST at room temperature and a titration of cynoIL23 or cynoIL12 in PBS was added to the plate and incubated at room temperature for 1 hour. […] A 100 μl solution containing 2 NH₂SO₄ was added to stop the reaction and the plate was read on a 96 well SpectroMax plate reader at 450 nm.

binding result: binds
B1: cynomolgus IL-12 (single chain: cyno p40 - 2 bovine elastin motifs - cyno p35) (ligand)
chain: IWELKKDVYVVELDWYPDAPGEMVVLTCDTPEEDGITWTLDQSGEVLGSGKTLTIQVKEFGDAGQYTCHKGGEALSHSLLLLHKKEDGIWSTDVLKDQKEPKNKTFLRCEAKNYSGRFTCWWLTTISTDLTFSVKSSRGSSNPQGVTCGAVTLSAERVRGDNKEYEYSVECQEDSACPAAEERLPIEVMVDAIHKLKYENYTSSFFIRDIIKPDPPKNLQLKPLKNSRQVEVSWEYPDTWSTPHSYFSLTFCIQVQGKSKREKKDRIFTDKTSATVICRKNASFSVQAQDRYYSSSWSEWASVPCSVPGVGVPGVGRNLSVATPGPEMFPCLHHSQNLLKAASNTLQKARQILEFYPCTSEEIDHEDITKDKTSTVEACLPLELIKNESCLNSRETSFITNGSCLASRKTSFMMALCLRSIYEDLKMYQVEFKTMNAKLLRDPKRQIFLDQNILGVIDELMQALNFNSETVPQKSSLEEPDFYKTKIKLCILLHAFRIRAVTIDRVMSYLNAS
notes: expressed in 293F cells and purified from the supernatant, about 95% pure; Any vector-derived residues at the junctions or a signal peptide are not described; also called cynoIL12; cyno IL-12
